Tested on: Escherichia coli TOP10
Test: shrunken log2 fold change of peptide-encoding DNA abundance (4.5 h post-induction vs induction); higher = less antimicrobial activity (less host growth inhibition)
Details: time post-induction: 4.5 h; library: site-saturation at positions 5, 18, 19, 20
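Note: peptides expressed intracellularly from a pBAD plasmid library in pooled LB shake-flask culture, induced with 0.3% L-arabinose, DNA abundance read by NGS, three biological replicates, DESeq2 with apeglm shrinkage.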

Sequence: RRIRGRPPRLPRPRPRPAHAPRP
- shrunken log2 fold change: 1.06

Sequence: RRIRMRPPRLPRPRPRPPILPRP
- shrunken log2 fold change: 0.0619

Sequence: RRIRHRPPRLPRPRPRPWWWPRP
- shrunken log2 fold change: 0.0221

Sequence: RRIRVRPPRLPRPRPRPLSTPRP
- shrunken log2 fold change: -0.0699

Sequence: RRIRPRPPRLPRPRPRPYQYPRP
- shrunken log2 fold change: -0.292

Sequence: RRIRGRPPRLPRPRPRPNTNPRP
- shrunken log2 fold change: 0.256

Sequence: RRIRDRPPRLPRPRPRPMAIPRP
- shrunken log2 fold change: 0.00911

Sequence: RRIRSRPPRLPRPRPRPWCEPRP
- shrunken log2 fold change: -0.291

Sequence: RRIRWRPPRLPRPRPRPPYSPRP
- shrunken log2 fold change: -0.262

Sequence: RRIRFRPPRLPRPRPRPLMPPRP
- shrunken log2 fold change: -0.00679

Sequence: RRIRRRPPRLPRPRPRPLTPPRP
- shrunken log2 fold change: 0.489

Sequence: RRIRARPPRLPRPRPRPNMGPRP
- shrunken log2 fold change: 0.137

Sequence: RRIRPRPPRLPRPRPRPDGRPRP
- shrunken log2 fold change: 0.101

Sequence: RRIRVRPPRLPRPRPRPRVYPRP
- shrunken log2 fold change: -0.587

Sequence: RRIRERPPRLPRPRPRPLQCPRP
- shrunken log2 fold change: -0.254

Sequence: RRIRNRPPRLPRPRPRPEMKPRP
- shrunken log2 fold change: -0.188

Sequence: RRIRQRPPRLPRPRPRPIFWPRP
- shrunken log2 fold change: 0.142

Sequence: RRIRNRPPRLPRPRPRPCSHPRP
- shrunken log2 fold change: -0.331

Sequence: RRIRNRPPRLPRPRPRPPDYPRP
- shrunken log2 fold change: -0.077

Sequence: RRIRRRPPRLPRPRPRPIGVPRP
- shrunken log2 fold change: 0.273

Sequence: RRIRARPPRLPRPRPRPMMEPRP
- shrunken log2 fold change: 0.0919

Sequence: RRIRMRPPRLPRPRPRPWKIPRP
- shrunken log2 fold change: -0.0114

Sequence: RRIRQRPPRLPRPRPRPMWCPRP
- shrunken log2 fold change: -0.339

Sequence: RRIRCRPPRLPRPRPRPLNVPRP
- shrunken log2 fold change: -0.186

Sequence: RRIRCRPPRLPRPRPRPAWNPRP
- shrunken log2 fold change: 0.035

Sequence: RRIRLRPPRLPRPRPRPNYEPRP
- shrunken log2 fold change: -0.416

Sequence: RRIRGRPPRLPRPRPRPHKKPRP
- shrunken log2 fold change: -0.108

Sequence: RRIRMRPPRLPRPRPRPTQLPRP
- shrunken log2 fold change: 0.668

Sequence: RRIRNRPPRLPRPRPRPLSVPRP
- shrunken log2 fold change: -0.21

Sequence: RRIRQRPPRLPRPRPRPQNMPRP
- shrunken log2 fold change: -0.506

Sequence: RRIRNRPPRLPRPRPRPQYPPRP
- shrunken log2 fold change: -0.571

Sequence: RRIRPRPPRLPRPRPRPEVNPRP
- shrunken log2 fold change: 0.188

Sequence: RRIRCRPPRLPRPRPRPQPVPRP
- shrunken log2 fold change: 0.399

Sequence: RRIRYRPPRLPRPRPRPFPIPRP
- shrunken log2 fold change: -0.705

Sequence: RRIRWRPPRLPRPRPRPAKEPRP
- shrunken log2 fold change: -0.01

Sequence: RRIRGRPPRLPRPRPRPYIHPRP
- shrunken log2 fold change: -0.252

Sequence: RRIRHRPPRLPRPRPRPHPDPRP
- shrunken log2 fold change: -0.206

Sequence: RRIRFRPPRLPRPRPRPLSDPRP
- shrunken log2 fold change: 0.207

Sequence: RRIRTRPPRLPRPRPRPHRPPRP
- shrunken log2 fold change: 0.0943

Sequence: RRIRRRPPRLPRPRPRPLAEPRP
- shrunken log2 fold change: 0.654

Sequence: RRIRKRPPRLPRPRPRPLDTPRP
- shrunken log2 fold change: 0.000649

Sequence: RRIRMRPPRLPRPRPRPVYGPRP
- shrunken log2 fold change: -0.294

Sequence: RRIRPRPPRLPRPRPRPAVAPRP
- shrunken log2 fold change: 0.416

Sequence: RRIRLRPPRLPRPRPRPHEEPRP
- shrunken log2 fold change: 0.13

Sequence: RRIRCRPPRLPRPRPRPLYFPRP
- shrunken log2 fold change: -0.836

Sequence: RRIRYRPPRLPRPRPRPVYWPRP
- shrunken log2 fold change: -0.763

Sequence: RRIRSRPPRLPRPRPRPQQHPRP
- shrunken log2 fold change: 0.0668

Sequence: RRIRARPPRLPRPRPRPKSPPRP
- shrunken log2 fold change: 0.425

Sequence: RRIRVRPPRLPRPRPRPQWDPRP
- shrunken log2 fold change: -0.0347

Sequence: RRIRERPPRLPRPRPRPCPTPRP
- shrunken log2 fold change: -0.204

Sequence: RRIRRRPPRLPRPRPRPWYAPRP
- shrunken log2 fold change: -0.0635

Sequence: RRIRIRPPRLPRPRPRPMERPRP
- shrunken log2 fold change: -0.0018

Sequence: RRIRERPPRLPRPRPRPWTQPRP
- shrunken log2 fold change: -0.298

Sequence: RRIRGRPPRLPRPRPRPAMYPRP
- shrunken log2 fold change: 0.369

Sequence: RRIRGRPPRLPRPRPRPIGCPRP
- shrunken log2 fold change: 0.0147

Sequence: RRIRWRPPRLPRPRPRPPTFPRP
- shrunken log2 fold change: -0.0697

Sequence: RRIRMRPPRLPRPRPRPLNVPRP
- shrunken log2 fold change: 0.0507

Sequence: RRIRERPPRLPRPRPRPRYWPRP
- shrunken log2 fold change: 0.185

Sequence: RRIRHRPPRLPRPRPRPKQWPRP
- shrunken log2 fold change: 0.0913

Sequence: RRIRTRPPRLPRPRPRPHTIPRP
- shrunken log2 fold change: -0.314

Sequence: RRIRYRPPRLPRPRPRPRYGPRP
- shrunken log2 fold change: -0.678

Sequence: RRIRRRPPRLPRPRPRPFQGPRP
- shrunken log2 fold change: -0.0527

Sequence: RRIRRRPPRLPRPRPRPTPTPRP
- shrunken log2 fold change: 1.14

Sequence: RRIRVRPPRLPRPRPRPCIFPRP
- shrunken log2 fold change: -0.0604

Sequence: RRIRLRPPRLPRPRPRPNSTPRP
- shrunken log2 fold change: -0.294

Sequence: RRIRRRPPRLPRPRPRPSQRPRP
- shrunken log2 fold change: 0.0863

Sequence: RRIRSRPPRLPRPRPRPWYVPRP
- shrunken log2 fold change: -0.36

Sequence: RRIRMRPPRLPRPRPRPNSAPRP
- shrunken log2 fold change: 0.0568

Sequence: RRIRGRPPRLPRPRPRPQVIPRP
- shrunken log2 fold change: -0.0421

Sequence: RRIRFRPPRLPRPRPRPPYIPRP
- shrunken log2 fold change: -0.282

Sequence: RRIRERPPRLPRPRPRPLHCPRP
- shrunken log2 fold change: 0.0821

Sequence: RRIRYRPPRLPRPRPRPMTLPRP
- shrunken log2 fold change: -0.0394

Sequence: RRIRPRPPRLPRPRPRPRCMPRP
- shrunken log2 fold change: 0.0856

Sequence: RRIRYRPPRLPRPRPRPGFEPRP
- shrunken log2 fold change: -0.127

Sequence: RRIRYRPPRLPRPRPRPTKIPRP
- shrunken log2 fold change: -0.373

Sequence: RRIRLRPPRLPRPRPRPLVWPRP
- shrunken log2 fold change: 0.193

Sequence: RRIRTRPPRLPRPRPRPGSMPRP
- shrunken log2 fold change: -0.199

Sequence: RRIRVRPPRLPRPRPRPHHMPRP
- shrunken log2 fold change: -0.26

Sequence: RRIRFRPPRLPRPRPRPPGRPRP
- shrunken log2 fold change: 0.637

Sequence: RRIRVRPPRLPRPRPRPGMDPRP
- shrunken log2 fold change: 0.225

Sequence: RRIRIRPPRLPRPRPRPPITPRP
- shrunken log2 fold change: -0.366

Sequence: RRIRRRPPRLPRPRPRPDIIPRP
- shrunken log2 fold change: -0.135

Sequence: RRIRMRPPRLPRPRPRPTYIPRP
- shrunken log2 fold change: -1.08

Sequence: RRIRKRPPRLPRPRPRPGIGPRP
- shrunken log2 fold change: 0.39

Sequence: RRIRQRPPRLPRPRPRPTGTPRP
- shrunken log2 fold change: 0.285

Sequence: RRIRWRPPRLPRPRPRPSSIPRP
- shrunken log2 fold change: -0.338

Sequence: RRIRKRPPRLPRPRPRPFGLPRP
- shrunken log2 fold change: -0.0305

Sequence: RRIRPRPPRLPRPRPRPLRMPRP
- shrunken log2 fold change: 0.596

Sequence: RRIRYRPPRLPRPRPRPRHLPRP
- shrunken log2 fold change: -0.142

Sequence: RRIRARPPRLPRPRPRPAMRPRP
- shrunken log2 fold change: 0.825

Sequence: RRIRARPPRLPRPRPRPMYLPRP
- shrunken log2 fold change: -0.506

Sequence: RRIRRRPPRLPRPRPRPWATPRP
- shrunken log2 fold change: 0.0893

Sequence: RRIRMRPPRLPRPRPRPIGWPRP
- shrunken log2 fold change: 0.599

Sequence: RRIRQRPPRLPRPRPRPGSMPRP
- shrunken log2 fold change: -0.174

Sequence: RRIRERPPRLPRPRPRPKYKPRP
- shrunken log2 fold change: -0.369

Sequence: RRIRPRPPRLPRPRPRPLSTPRP
- shrunken log2 fold change: -0.0907

Sequence: RRIRARPPRLPRPRPRPAHSPRP
- shrunken log2 fold change: 0.469

Sequence: RRIRGRPPRLPRPRPRPLADPRP
- shrunken log2 fold change: 1.68

Sequence: RRIRSRPPRLPRPRPRPEDKPRP
- shrunken log2 fold change: -0.00968

Sequence: RRIRKRPPRLPRPRPRPEAFPRP
- shrunken log2 fold change: 0.434

Sequence: RRIRLRPPRLPRPRPRPFFSPRP
- shrunken log2 fold change: -0.0767

Sequence: RRIRNRPPRLPRPRPRPIKVPRP
- shrunken log2 fold change: -0.607

Sequence: RRIRTRPPRLPRPRPRPRAYPRP
- shrunken log2 fold change: -0.339

Sequence: RRIRCRPPRLPRPRPRPMHGPRP
- shrunken log2 fold change: 0.0358

Sequence: RRIRNRPPRLPRPRPRPNFVPRP
- shrunken log2 fold change: -0.317

Sequence: RRIRGRPPRLPRPRPRPTGVPRP
- shrunken log2 fold change: 0.742

Sequence: RRIRFRPPRLPRPRPRPTYPPRP
- shrunken log2 fold change: -0.497

Sequence: RRIRMRPPRLPRPRPRPWRLPRP
- shrunken log2 fold change: -0.0743

Sequence: RRIRERPPRLPRPRPRPLQWPRP
- shrunken log2 fold change: 0.499

Sequence: RRIRNRPPRLPRPRPRPKVRPRP
- shrunken log2 fold change: -0.0024

Sequence: RRIRYRPPRLPRPRPRPRGAPRP
- shrunken log2 fold change: 1.34

Sequence: RRIRYRPPRLPRPRPRPFDKPRP
- shrunken log2 fold change: -0.0924

Sequence: RRIRWRPPRLPRPRPRPVKRPRP
- shrunken log2 fold change: 0.015

Sequence: RRIRTRPPRLPRPRPRPPRPPRP
- shrunken log2 fold change: 0.713

Sequence: RRIRTRPPRLPRPRPRPEDRPRP
- shrunken log2 fold change: 0.0062

Sequence: RRIRYRPPRLPRPRPRPYRKPRP
- shrunken log2 fold change: -0.178

Sequence: RRIRRRPPRLPRPRPRPPGFPRP
- shrunken log2 fold change: 0.468

Sequence: RRIRERPPRLPRPRPRPKDCPRP
- shrunken log2 fold change: 0.033

Sequence: RRIRHRPPRLPRPRPRPMHVPRP
- shrunken log2 fold change: -0.0591

Sequence: RRIRVRPPRLPRPRPRPYWSPRP
- shrunken log2 fold change: 0.000469

Sequence: RRIRARPPRLPRPRPRPHLNPRP
- shrunken log2 fold change: 0.102

Sequence: RRIRGRPPRLPRPRPRPLYIPRP
- shrunken log2 fold change: -0.321

Sequence: RRIRARPPRLPRPRPRPIAPPRP
- shrunken log2 fold change: 0.53

Sequence: RRIRRRPPRLPRPRPRPCPLPRP
- shrunken log2 fold change: 0.262

Sequence: RRIRKRPPRLPRPRPRPAETPRP
- shrunken log2 fold change: 0.336

From the supplement of paper PMC9112550, “Optimization of the antimicrobial peptide Bac7 by deep mutational scanning” (BMC Biology, 2022)
